Results as given in paper PMC3488000.

How the values were obtained:
Experiment in all cases: SEC; Superdex 200 on an AKTA FPLC, 20 mM Tris, 1M NaCl, pH 8.0; column calibrated with globular protein standards; oligomeric state = estimated net mass divided by the calculated monomer mass (16.3 kDa)
[1] = biological target: flavin-binding fluorescent protein (FbFP) from Pseudomonas putida (Pseudomonas putida KT2440) (UniProt Q88JB0)
[2] = biological target: FbFP F37S (Pseudomonas putida KT2440) (UniProt Q88JB0)
[3] = biological target: FbFP F37T (Pseudomonas putida KT2440) (UniProt Q88JB0)

flavin-binding fluorescent protein (FbFP) from Pseudomonas putida (from UniProt Q88JB0 1-151) (natural protein)
stoichiometry N [1]: 1.81

FbFP F37S (from UniProt Q88JB0 1-151) (natural protein)
stoichiometry N [2]: 1.78

FbFP F37T (from UniProt Q88JB0 1-151) (natural protein)
stoichiometry N [3]: 1.87
